Measurements reported in paper PMC6633398.

Experiments:
[1] = biological target: CASP (encoded by CUX1; isoform 4) (UniProt Q13948); experiment: co-immunoprecipitation (IP: c-Myc) from cytosol, western blot quantification; details: absence of detergent, n=4, parent: est. 1.0, read off a plot
[2] = biological target: golgin-84 (also known as GOLGA5) (UniProt Q8TBA6); experiment: as above; details: absence of detergent, n=4, parent: est. 1.0, read off a plot
Chain of golgin-84 (also known as GOLGA5) (Q8TBA6 whole entry): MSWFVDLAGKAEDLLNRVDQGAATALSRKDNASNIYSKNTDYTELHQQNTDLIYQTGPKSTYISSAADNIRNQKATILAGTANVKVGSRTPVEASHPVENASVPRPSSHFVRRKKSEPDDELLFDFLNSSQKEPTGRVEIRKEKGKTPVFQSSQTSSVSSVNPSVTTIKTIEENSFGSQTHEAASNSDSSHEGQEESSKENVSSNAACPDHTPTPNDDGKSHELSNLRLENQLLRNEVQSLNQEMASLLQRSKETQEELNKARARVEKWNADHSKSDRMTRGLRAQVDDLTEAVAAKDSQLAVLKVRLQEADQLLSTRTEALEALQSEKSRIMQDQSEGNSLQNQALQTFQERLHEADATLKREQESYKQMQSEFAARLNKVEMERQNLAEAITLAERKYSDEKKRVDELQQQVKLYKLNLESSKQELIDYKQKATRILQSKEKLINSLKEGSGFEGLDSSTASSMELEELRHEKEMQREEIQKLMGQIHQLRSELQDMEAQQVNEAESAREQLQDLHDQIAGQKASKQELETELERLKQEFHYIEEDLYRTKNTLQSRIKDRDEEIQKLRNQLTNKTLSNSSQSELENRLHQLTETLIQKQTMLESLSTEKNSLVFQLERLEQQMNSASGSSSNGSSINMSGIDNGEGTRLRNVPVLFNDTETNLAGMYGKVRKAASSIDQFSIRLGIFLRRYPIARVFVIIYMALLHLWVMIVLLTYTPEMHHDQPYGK

Chain of CASP (encoded by CUX1; isoform 4) (Q13948 whole entry, canonical isoform): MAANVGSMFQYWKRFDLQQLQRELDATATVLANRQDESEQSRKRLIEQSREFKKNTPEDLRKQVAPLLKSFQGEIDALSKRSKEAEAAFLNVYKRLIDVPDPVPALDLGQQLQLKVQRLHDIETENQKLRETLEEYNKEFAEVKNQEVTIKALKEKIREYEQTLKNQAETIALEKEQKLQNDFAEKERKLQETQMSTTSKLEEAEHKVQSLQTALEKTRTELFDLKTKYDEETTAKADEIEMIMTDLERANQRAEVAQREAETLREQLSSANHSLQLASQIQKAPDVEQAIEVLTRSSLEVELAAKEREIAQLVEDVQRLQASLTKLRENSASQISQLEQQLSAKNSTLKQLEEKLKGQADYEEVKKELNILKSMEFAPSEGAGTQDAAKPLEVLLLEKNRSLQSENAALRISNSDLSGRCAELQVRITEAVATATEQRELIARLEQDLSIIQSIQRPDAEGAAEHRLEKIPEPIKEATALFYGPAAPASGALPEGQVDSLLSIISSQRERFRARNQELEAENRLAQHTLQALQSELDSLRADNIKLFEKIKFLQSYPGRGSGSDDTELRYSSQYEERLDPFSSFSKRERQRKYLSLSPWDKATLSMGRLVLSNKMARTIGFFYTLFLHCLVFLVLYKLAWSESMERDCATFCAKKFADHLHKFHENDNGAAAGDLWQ
Chain of c-Myc–TRC40 (wild-type TRC40, also known as ASNA1), O43681 D74E; L190K; I193K (O43681 whole entry D74E/L190K/I193K): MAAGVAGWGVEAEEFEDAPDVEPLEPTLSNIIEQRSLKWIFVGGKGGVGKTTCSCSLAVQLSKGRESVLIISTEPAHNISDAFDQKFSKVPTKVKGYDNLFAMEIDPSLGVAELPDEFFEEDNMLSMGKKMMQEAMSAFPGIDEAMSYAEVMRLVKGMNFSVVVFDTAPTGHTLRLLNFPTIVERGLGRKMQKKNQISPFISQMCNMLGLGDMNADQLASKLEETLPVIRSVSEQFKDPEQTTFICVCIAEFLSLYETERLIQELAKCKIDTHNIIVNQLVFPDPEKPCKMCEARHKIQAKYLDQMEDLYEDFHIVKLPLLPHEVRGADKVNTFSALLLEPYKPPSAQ
Chain of c-Myc–TRC40 (wild-type TRC40, also known as ASNA1), O43681 D74E; L190D; I193D (O43681 whole entry D74E/L190D/I193D): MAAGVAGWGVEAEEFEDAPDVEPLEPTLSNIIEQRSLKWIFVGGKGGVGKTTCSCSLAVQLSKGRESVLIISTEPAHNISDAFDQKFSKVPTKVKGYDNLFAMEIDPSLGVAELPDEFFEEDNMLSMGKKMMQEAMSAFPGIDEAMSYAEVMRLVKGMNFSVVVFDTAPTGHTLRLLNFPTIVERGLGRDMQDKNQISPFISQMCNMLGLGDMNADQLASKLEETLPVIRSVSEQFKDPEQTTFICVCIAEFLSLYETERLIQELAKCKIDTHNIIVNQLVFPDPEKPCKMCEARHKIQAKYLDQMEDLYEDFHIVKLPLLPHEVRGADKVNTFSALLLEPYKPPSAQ
Chain of c-Myc–TRC40 (wild-type TRC40, also known as ASNA1), O43681 D74E (O43681 whole entry D74E): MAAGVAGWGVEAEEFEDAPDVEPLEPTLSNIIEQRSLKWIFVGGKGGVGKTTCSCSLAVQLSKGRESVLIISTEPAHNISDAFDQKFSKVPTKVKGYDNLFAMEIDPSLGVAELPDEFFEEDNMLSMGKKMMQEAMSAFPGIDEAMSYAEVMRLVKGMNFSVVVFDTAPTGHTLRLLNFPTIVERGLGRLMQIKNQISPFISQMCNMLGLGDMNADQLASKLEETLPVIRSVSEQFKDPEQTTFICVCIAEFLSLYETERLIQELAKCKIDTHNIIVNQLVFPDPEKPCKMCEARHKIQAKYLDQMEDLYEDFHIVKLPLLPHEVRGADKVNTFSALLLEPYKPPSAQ

Row | ratio to parent [1] | ratio to parent [2] | Substance
1 | 4.7 | 13 | c-Myc–TRC40 (wild-type TRC40, also known as ASNA1), O43681 D74E
2 | 23 | 21 | c-Myc–TRC40 (wild-type TRC40, also known as ASNA1), O43681 D74E; L190D; I193D
3 | 14 | 9 | c-Myc–TRC40 (wild-type TRC40, also known as ASNA1), O43681 D74E; L190K; I193K
